Experimental data from patent US20150104457A1 (OREGA BIOTECH, published 2015).
Where a chain is given by its changes, count along the chain named. Several values for one entry are separate records, joined by “and”; a condition that tells them apart may be missing. Equal values may be shown once.

T1: recombinant human IL-17A (human, UniProt Q16552 24-155)
T1 construct: also called CTLA-8; IL-17A/A homodimer
T1 sequence: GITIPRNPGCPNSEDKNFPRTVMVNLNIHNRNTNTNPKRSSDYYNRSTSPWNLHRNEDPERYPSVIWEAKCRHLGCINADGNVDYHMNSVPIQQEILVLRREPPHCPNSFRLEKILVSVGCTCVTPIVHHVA

T2: recombinant human IL-17A/F (heterodimer) (human, UniProt Q16552 24-155; Q96PD4 31-163)
T2 sequence 1: T1 sequence
T2 sequence 2: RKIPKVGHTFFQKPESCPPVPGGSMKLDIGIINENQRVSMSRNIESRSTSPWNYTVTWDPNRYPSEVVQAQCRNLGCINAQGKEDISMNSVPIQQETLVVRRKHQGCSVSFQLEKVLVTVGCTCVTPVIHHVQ

B1: OREG-210 (antibody, V domains shown)
VH: QVQLKESGPDLVAPSQSLSITCTVSGFSLTSYGIHWVRQPPGKGLEWLVVIWSDGTTTYNSALKSRLSISKDNSKSQVFLKMNSLQTDDTAMYYCASSYDYLYHYTMDYWGQGTSVTVSS
VL: DVVMTQTPLSLPVSLGDQASISCRSSQSLVHSNGNTYFHWYLQKPGQSPKLLIYKVSNRFSGVPDRFSGSGSGTDFTLKISRVEAEDLGVYFCSQSTHVPLTFGAGTNLELK
notes: also called mAb OREG-210; Ab OREG-210
B2: OREG-203 (antibody, V domains shown)
VH: QAQLQQSGAELVKPGASVKMSCKAFGYTFTTFPIEWMKQNHGKSLEWIGNFHPYNDYTKYNEKFKGKAKLTVEKSSRTVYLELSRLTSDDSAVYYCARGAYYGDYVSHTMDFWGQGTSVTVSS
VL: NIVLTQSPASLAVSLGQRATISCRASESVDSYGNSFMHWYQQKPGQPPKLLIYLASNLESGVPARFSGSGSRTDFTLTIDPVEADDAAIYYCQQNNEDPLTFGAGTKLELK
notes: also called mAb OREG-203; Ab OREG-203
B3: OREG-207 (antibody, V domains shown)
VH: B2 VH with R77S
VL: B2 VL
notes: also called mAb OREG-207; Ab OREG-207
B4: F(ab')2 fragment of OREG-210 (other)
VH: B1 VH
VL: B1 VL
B5: Fab fragment of OREG-210 (Fab, V domains shown)
VH: B1 VH
VL: B1 VL
B6: Fab fragment of OREG-203 (Fab, V domains shown)
VH: B2 VH
VL: B2 VL

target: T1, recombinant human IL-17A; assay: competitive ELISA in solution (method of Friguet et al.)
Description: (§1) For this determination a competitive ELISA with the various isoforms was performed.
(§2) Appropriate concentrations of the respective antigens and monoclonal antibodies were mixed in assay buffer and incubated overnight with continuous shaking at room temperature. The same monoclonal antibodies in the same concentration, but without antigen were used as positive reference (100% value). Pre-incubated antibodies were added to the plates. The plates were incubated with continuous shaking and washed 4× with 250 μL/well TBS-TRP.

| Ka [M⁻¹] | Kd [nM] | Binder |
| --- | --- | --- |
| 6.4e+08 | 1.56 | B1 |
| 1.4e+09 | 0.714 | B2 |
| 1.54e+09 | 0.649 | B3 |

target: T2, recombinant human IL-17A/F (heterodimer); assay: as above
Description: as §1, §2

| Ka [M⁻¹] | Kd [nM] | Binder |
| --- | --- | --- |
| 3.4e+08 | 2.94 | B1 |
| 1e+09 | 1 | B2 |
| 2.67e+09 | 0.375 | B3 |

target: T1, recombinant human IL-17A; assay: cell-based or functional assay

| IC50, neutralization of IL-6 production in normal human dermal fibroblasts | Binder |
| --- | --- |
| 110 ng/ml and 0.74 nM | B1 |
| 1050 ng/ml and 10.5 nM | B4 |
| 1120 ng/ml and 22.4 nM | B5 |
| 115 ng/ml and 0.76 nM | B2 |
| 75.9 ng/ml and 1.52 nM | B6 |
| 96.5 ng/ml and 0.64 nM | B3 |

target: T2, recombinant human IL-17A/F (heterodimer); assay: cell-based or functional assay

| IC50, neutralization of IL-6 production in normal human dermal fibroblasts | Binder |
| --- | --- |
| 167 ng/ml and 1.1 nM | B1 |
| 1160 ng/ml and 11.6 nM | B4 |
| 605 ng/ml and 12.1 nM | B5 |
| 30.2 ng/ml and 0.2 nM | B2 |
| 15.3 ng/ml and 0.306 nM | B6 |
| 40.1 ng/ml and 0.26 nM | B3 |
